# Test results reported in patent publication US20240167012.
# Assays:
# [1] = test system: T1, aspartic protease Rhodotorulapepsin
# T1 sequence: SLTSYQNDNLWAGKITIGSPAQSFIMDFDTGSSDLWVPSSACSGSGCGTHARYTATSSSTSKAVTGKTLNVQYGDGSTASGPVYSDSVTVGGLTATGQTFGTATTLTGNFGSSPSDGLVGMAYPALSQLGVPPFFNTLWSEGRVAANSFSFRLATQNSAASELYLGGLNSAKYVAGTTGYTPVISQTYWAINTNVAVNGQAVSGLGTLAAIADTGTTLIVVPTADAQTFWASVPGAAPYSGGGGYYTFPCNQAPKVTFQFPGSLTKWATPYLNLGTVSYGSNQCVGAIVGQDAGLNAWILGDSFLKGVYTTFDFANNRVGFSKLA
# [2] = test system: T2, gluten immunogenic peptide 33-mer from α-gliadin
# T2 sequence: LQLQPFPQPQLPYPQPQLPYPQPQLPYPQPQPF
# [3] = test system: T3, gluten immunogenic peptide 26-mer from γ-gliadin
# T3 sequence: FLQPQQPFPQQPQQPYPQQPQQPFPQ
substance,measurement,setting,value
pepsin,"resistance of the protease to pepsin hydrolysis, inferred from gliadin hydrolysis in the presence of pepsin",[1],the aspartic protease Rhodotorulapepsin is resistant to pepsin hydrolysis
same,"hydrolysis of the 33-mer, RP-HPLC (pH 3.0 and pH 5.0)",[2],gluten immunogenic peptides 26-mer and 33-mer were not degraded after the same reaction time
same,"hydrolysis of the 26-mer, RP-HPLC (pH 3.0 and pH 5.0)",[3],gluten immunogenic peptides 26-mer and 33-mer were not degraded after the same reaction time
same,"hydrolysis of gliadin 7.5 mg/ml, SDS-PAGE (pH 3.0, 3 h)",gliadin,"when only 250 µg/ml of pepsin was included in the enzyme mixture, gliadin was not completely hydrolyzed"
same,"hydrolysis of gliadin, SDS-PAGE of residual gliadin (pH 3.0, 37° C., enzyme:gliadin 1:500)",gliadin,gliadin was not hydrolyzed by pepsin even after 150 minutes of reaction
same,"relative activity to hydrolyze gliadin, ELISA of residual gliadin (pH 2.5, 1.5 h, pepsin 1 mg/ml)",gliadin,the relative activity of the simulated gastric acid environment to hydrolyze gliadin is 13%
